Reference: the DeepSol protein solubility set

Assay: soluble on expression in E. coli; label from the status in PepcDB or PDB records

Q: Which “soluble on expression in E. coli” value does the source give for “MSLKAVQQHAFGGPEVLSYEDAPMPVLQAGEVLVQVYAVGVNPPDSYLRDGYQQLPPEWRPEVRFPLILGTDLSGVVVARADDVREVAVGDEVYAMARFPEGAAGGSRAYAEYVSVPVSDLARKPLTLSHQQAAAVPMSLLTAWQFMIDPGHEVANPLQPGPHRPVPLAGKRVLVNGAAGGVGHFAVQLAKWQGAEVIAVAAGCHEAFLRQLGADSVIDYTTTAVEETVRDLDLVIDAPGGPASGRFLRTLRPGGALYPIFPLGFAGAEEARQRGVTVSTTQVRSSGAQLARLADLLDAGVIRVAIDSVFPLAQAQMAHERAAQGHLEGKIVLSVMDSEGHHHHHH” here?
A: soluble

Q: With “MSLTVPQSITELDLKNLTNRTFHPSPVAWEDQVLYFLLLDRFSDGKETGYRDNRGRRVAKGETPLYQPGDAGNAIRTEPEAAVWRESGSRWCGGTLKGLASKMGYLKRMGVTAVWVSPLFKQCSFVPTYHGYGIQNFLEVDPHFGTADDLRELVHVAHANGIYVILDIILNHAGNIFAYDRGYTPYDGSTVYPVTGFRSADGTPNLPFGPIDTKANPDAWPDGAVWPRELQAANAYTRMGHIRDWDSYHEYLDGDFFDLKDIHLGEGEVDAFRPSPALLALCEVYKYWIALSDVDGYRIDTVKHMGAGATRFFASVIHEFAQAIGKENFYLIGEITGGRDNAFNTLATTGLNAALGVDDIPLRLEDLVKGRANPADYFNLFRNSLLVRKESHVWFRDKVVTVIDDHDQVCRGAKKERFCAGDPKWRRLVLNALALNTTTLGIPCVYYGTEQAFDGEGGDDRYLRECMFGGPFGAFRTRGVQFFDEENPVYREFAKILALRREKLPLRRGRQYLREISGDGVTFGLPYVIGGEIRSVVPWSRIFDTEEMVLAINTDADSPRTAWVLVDGSLHREGDRFAYRYSTDPGQVRGTTAVQRINDAVQAIQVTVPAAGFVMLEQREGHHHHHH” as the sequence, how does the “soluble on expression in E. coli” value read?
A: soluble

Q: Which “soluble on expression in E. coli” value does the source give for “MTYDYVIVGGGIVGVSTGWQLKRRYPEKSVLLIEKEAGFSRHQTGHNSGVIHAGVYYAPGSLKADFCKRGVERTLAFCAQHNIPVENCGKLLVATNEQELERMHALYDRCLQNQIDVEKLDAAQLKLAEPNIRGLGAILVKATSIVNYRLVTEKMAEAFMQLGGDVKIGTEVVGLEETPSSITLTCQQKNQRVSYQAKFLVTCSGLMADRLTKMLGLPTDFQIIPYRGEYYRLAPKHNQVVRHLIYPIPDPELPFLGVHLTRMIDGCVTVGPN” here?
A: not soluble

Q: For “MGSDKIHHHHHHLEQQAIVANNLANASTTGFRAQLATFRAVPMSFGDGSSINDNTTRTFVLSSTPGADYTPGPIQQTGNPLDVAIQGPGWLAVQTADGGEAYTRAGNLHIDENGQLVNATNQVVLGNGGPVSVPPGAEITIGKDGTVSALTPGDPPTAVVTVDQLKLVNPDPQTMTRGDDGLFRTGDGNPADADPTVTLAPASLEGSNVNPVSAMVSMITNARQFQMQTKLLESADKNDQSANQLLSFS”, which “soluble on expression in E. coli” value is on record?
A: not soluble

Q: Which “soluble on expression in E. coli” value does the source give for “MGSDKIHHHHHHMQKPHLLITSAGRRAKLVEYFVKEFKTGRVSTADCSPLASALYMADQHYIVPKIDEVEYIDHLLTLCQDEGVTALLTLIDPELGLLAQATERFQAIGVTVIVSPYAACELCFDKYTMYEYCLRQGIAHARTYATMASFEEALAAGEVQLPVFVKPRNGSASIEVRRVETVEEVEQLFSKNTDLIVQELLVGQELGVDAYVDLISGKVTSIFIKEKLTMRAGETDKSRSVLRDDVFELVEHVLDGSGLVGPLDFDLFDVAGTLYLSEINPRFGGGYPHAYECGVNFPAQLYRNLMHEINVPQIGQYLDDIYMLKHDTVTLISAAELQKIKR” here?
A: not soluble

Q: For “GMENLGDRLEVVAELSLAPGNITLTPDGRLFLSLHQFYQPEMQVAELTQDGLIPFPPQSGNAIITFDTVLGIKSDGNGIVWMLDNGNQSKSVPKLVAWDTLNNQLSRVIYLPPPITLSNSFVNDLAVDLIHNFVYISDPAPDDKAALIRVDLQTGLAARVLQGYPGIAPEDIDLVIDGVPVQIGQPDGTVIRPHLGVNGIVLDAENEWLYLSPMHSTSMYRIKSADLSNLQLTDAELGSKIERYSEKPICDGISIDKDHNIYVGDLAHSAIGVITSADRAYKLLVTDEKLSWTDSFNFGSDGYLYFDCNQLHHSAPLNAGENISAPPYYIFRLKPLAAGIVGR”, which “soluble on expression in E. coli” value is on record?
A: soluble

Q: For “MAHHHHHHMCLLDVDEYKHTDTPEPRGEILLRGPFLFKGYYMQEKLTREALDEDGWFHTGDVGSITTHGRLRIIGRVKALAKNVLGEYIALEALESMYAHNALCMPNGVCVLVHPARSYICALVLTDETKAMMFAKEHGIEGSYPDILRDPAFQRKATESMQATARKADRQKFECVRHVRVVGDEWTPENEILTAAGKLKRREIDKRYADVIQLLFVEEC”, which “soluble on expression in E. coli” value is on record?
A: not soluble
